In patent publication US20080125498A1, “TREATMENT OF NEURODEGENERATIVE DISEASES AND CONDITIONS USING PAR1 ANTAGONISTS” (priority 2001, published 2008):

System: PAR1
Experiment: PI hydrolysis in hippocampal slices
Format: cell-based, mouse
Description: PAR1 is a seven transmembrane G-protein coupled receptor that stimulates G-alpha-q to initiate phosphatidyl inositol (PI) hydrolysis. To ensure that PAR1 is functional in regions of the brain that are subject to ischemic damage in the mouse transient focal ischemia model, we tested the ability of several activators of PAR1 to initiate PI hydrolysis (Chung et al., 1997) in the hippocampus and striatum.
Since tPA activates plasminogen to form plasmin, we tested whether exogenously applied tPA could activate endogenous plasminogen in brain slices to form plasmin and activate PAR1.

[1] = wild type hippocampus / hippocampal slices

Molecule | PI hydrolysis [1] | PI hydrolysis (plasminogen-deficient mice) | inhibition of tPA-induced increase in PI hydrolysis (wild type hippocampal slices)
plasmin: serine protease involved in blood clotting that can activate PAR1 (protein, UniProt P00747 20-580; P00747 581-810, looked up, plasmin) Plasmin heavy chain A: EPLDDYVNTQGASLFSVTKKQLGAGSIEECAAKCEEDEEFTCRAFQYHSKEQQCVIMAENRKSSIIIRMRDVVLFEKKVYLSECKTGNGKNYRGTMSKTKNGITCQKWSSTSPHRPRFSPATHPSEGLEENYCRNPDNDPQGPWCYTTDPEKRYDYCDILECEEECMHCSGENYDGKISKTMSGLECQAWDSQSPHAHGYIPSKFPNKNLKKNYCRNPDRELRPWCFTTDPNKRWELCDIPRCTTPPPSSGPTYQCLKGTGENYRGNVAVTVSGHTCQHWSAQTPHTHNRTPENFPCKNLDENYCRNPDGKRAPWCHTTNSQVRWEYCKIPSCDSSPVSTEQLAPTAPPELTPVVQDCYHGDGQSYRGTSSTTTTGKKCQSWSSMTPHRHQKTPENYPNAGLTMNYCRNPDADKGPWCFTTDPSVRWEYCNLKKCSGTEASVVAPPPVVLLPDVETPSEEDCMFGNGKGYRGKRATTVTGTPCQDWAAQEPHRHSIFTPETNPRAGLEKNYCRNPDGDVGGPWCYTTNPRKLYDYCDVPQCAAPSFDCGKPQVEPKKCPGR Plasmin light chain B: VVGGCVAHPHSWPWQVSLRTRFGMHFCGGTLISPEWVLTAAHCLEKSPRPSSYKVILGAHQEVNLEPHVQEIEVSRLFLEPTRKDIALLKLSSPAVITDKVIPACLPSPNYVVADRTECFITGWGETQGTFGAGLLKEAQLPVIENKVCNRYEFLNGRVQSTELCAGHLAGGTDSCQGDSGGPLVCFEKDKYILQGVTSWGLGCARPNKPGVYVRVSRFVTWIEGVMRNN | increased PI hydrolysis | – | –
tPA: tissue plasminogen activator; activates plasminogen to form plasmin; thrombolytic agent (protein, UniProt P00750 36-562, looked up) Tissue-type plasminogen …: SYQVICRDEKTQMIYQQHQSWLRPVLRSNRVEYCWCNSGRAQCHSVPVKSCSEPRCFNGGTCQQALYFSDFVCQCPEGFAGKCCEIDTRATCYEDQGISYRGTWSTAESGAECTNWNSSALAQKPYSGRRPDAIRLGLGNHNYCRNPDRDSKPWCYVFKAGKYSSEFCSTPACSEGNSDCYFGNGSAYRGTHSLTESGASCLPWNSMILIGKVYTAQNPSAQALGLGKHNYCRNPDGDAKPWCHVLKNRRLTWEYCDVPSCSTCGLRQYSQPQFRIKGGLFADIASHPWQAAIFAKHRRSPGERFLCGGILISSCWILSAAHCFQERFPPHHLTVILGRTYRVVPGEEEQKFEVEKYIVHKEFDDDTYDNDIALLQLKSDSSRCAQESSVVRTVCLPPADLQLPDWTECELSGYGKHEALSPFYSERLKEAHVRLYPSSRCTSQHLLNRTVTDNMLCAGDTRSGGPQANLHDACQGDSGGPLVCLNDGRMTLVGIISWGLGCGQKDVPGVYTKVTNYLDWIRDNMRP | significantly increased PI hydrolysis | did not increase PI hydrolysis | –
alpha-2-antiplasmin: plasmin inhibitor (protein, UniProt P08697 40-491, looked up) Alpha-2-antiplasmin: NQEQVSPLTLLKLGNQEPGGQTALKSPPGVCSRDPTPEQTHRLARAMMAFTADLFSLVAQTSTCPNLILSPLSVALALSHLALGAQNHTLQRLQQVLHAGSGPCLPHLLSRLCQDLGPGAFRLAARMYLQKGFPIKEDFLEQSEQLFGAKPVSLTGKQEDDLANINQWVKEATEGKIQEFLSGLPEDTVLLLLNAIHFQGFWRNKFDPSLTQRDSFHLDEQFTVPVEMMQARTYPLRWFLLEQPEIQVAHFPFKNNMSFVVLVPTHFEWNVSQVLANLSWDTLHPPLVWERPTKVRLPKLYLKHQMDLVATLSQLGLQELFQAPDLRGISEQSLVVSGVQHQSTLELSEVGVEAAAATSIAMSRMSLSSFSVNRPFLFFIFEDTTGLPLFVGSVRNPNPSAPRELKEQQDSPGNKDFLQSLKGFPRGDKLFGPDLKLVPPMEEDYPQFGSPK | – | – | inhibited the tPA-induced increase in PI hydrolysis
